Reference: the supplement of paper PMC12764529
± gives the half width of the 95% confidence interval.

Key:
[1] = folding stability dG unfold from trypsin proteolysis; higher = more stable
Outline: (§1)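 Mini-proteins designed to be under 80 residues and free of cysteine were carried in a PA-tagged cDNA display construct and digested with trypsin and with chymotrypsin. Each protease was applied at 11 threefold-diluted concentrations, alongside a no-protease condition, before sequencing. K50 came from Bayesian fitting of the sequencing counts, and unfolding free energy was obtained by comparing it with a sequence-predicted unfolded-state K50 and a shared folded-state K50, for each protease separately or for both together. Designs were retained only if their AlphaFold2 dimer inter-PAE exceeded 15.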

[2] = folding stability dG unfold from chymotrypsin proteolysis; higher = more stable
Outline: as §1

[3] = folding stability dG unfold (combined trypsin and chymotrypsin); higher = more stable
Outline: as §1

| Sequence | folding stability dG unfold [1] [kcal/mol] | folding stability dG unfold [2] [kcal/mol] | folding stability dG unfold [3] [kcal/mol] |
| --- | --- | --- | --- |
| SAMKITEITYDKETNTITITVEIKLPPGVKKIKLKLFIDGAEIEEITMEVDEETGTVRITLKIRIPKDASAG [r14_244_TrROS_Hall] | 4.9 ± 0.88 | 6.06 ± 0.78 | > 6 |
| SAMKKIKLSPEALELAKKLPPDYKVTEIKVEKLEDGTVVVTLTVEKTNENGEKEKVELTIVLDKDGKPVSAG [r14_420_TrROS_Hall] | 0.619 ± 0.065 | 0.0295 ± 0.46 | 0.757 ± 0.37 |
| SAMKKTETRVLEIRIGDYLAKIFLTEYEDGRVETLIEVYGPDPAVVEEVKDFLEKLDPDLEITEIVVLDSAG [r14_611_TrMRF] | 3.13 ± 0.072 | 2.23 ± 0.032 | 2.68 ± 0.12 |
| SAMKPFPAKEAIEQILEEMEDMPLPPGQEEVEFQIRLPDDGAPVQISIERNPGKWKIEIYVGNKPIWITSAG [r14_199_TrROS] | 1.7 ± 0.082 | 2.43 ± 0.14 | 2.05 ± 0.12 |
| SAMKPGEKVKIKIITFEKKKDPKTGEEKIEMKEIEIEATITEVEEKDGKVTVKIKIENLPPGAMIIIEKSAG [r14_412_TrROS_Hall] | 2.05 ± 0.069 | 3.64 ± 0.087 | 3.18 ± 0.086 |
| SAMKTEVIEFENFTIVVEELPDGSKKIIILFENPEKAKEALEKNPWIKEFIAEAEKEGYDVELAVVEPESAG [r14_873_TrMRF] | 3.21 ± 0.12 | 3.31 ± 0.042 | 3.21 ± 0.085 |
| SAMKTVTIKVTVEVTKNENGEEVKTVTVTLTLPEEEMTEEQLKELAKELADKLAEENNLTVKITKIEVTSAG [r14_190_TrROS_Hall] | 3.27 ± 0.19 | 2.93 ± 0.1 | 3.08 ± 0.06 |
| SAMKTYTLPNATITVETLPGDNTIVVTVTDPESGKTTTTTVSLDDPSLTIENIIARIEEQIKAGKPVSLSAG [r14_157_JUSTAS] | 2.33 ± 0.1 | 2.16 ± 0.054 | 2.16 ± 0.14 |
| SAMKVEIVEVKKNEDGSEEITIKIVVPDDKDMTPEELAALLKKEFGVDEVKVEVVDENGYKVITITIKRSAG [r14_228_TrROS_Hall] | 4.03 ± 0.26 | 3.55 ± 0.15 | 3.9 ± 0.24 |
| SAMKVTITVTKHTLPDGTPYYTVTITDPSTGKTFSGPVSSEEEAKATAQALADKIEAEGTPVTITFTDDSAG [r14_263_JUSTAS] | 3.97 ± 0.23 | 4.03 ± 0.086 | 3.99 ± 0.14 |
| SAMKWSEVVVSYPSDRWYAEIYTPGPGGELTSVSYREFDSLEELEQWIEEKAPPGEVEVKREPAPPELLSAG [r14_964_JUSTAS] | 1.17 ± 0.033 | 0.722 ± 0.094 | 0.967 ± 0.051 |
| SAMKYTVKLPPGAEPIQPEELAALPYVEVVEVEISDGEDGTRTLTITVSPDVPEENVEKLKEYIEKKLKSAG [r14_421_JUSTAS] | 2.93 ± 0.077 | 3.17 ± 0.043 | 3.12 ± 0.085 |
| SAMKYVELKLTITVPKEKEEEIEKLKKALEKLGAEIVSVEVEYDEETEEVTVTVTIRIENLSEEELKKASAG [r14_956_TrROS_Hall] | 1.97 ± 0.048 | 2.97 ± 0.08 | 2.69 ± 0.086 |
| SAMLRIRVEYEDGRVEDIVIPLAGEDPPFGKEAVEEAAERIAKEVEEKYGLKNVKTEVEAFPVSPEELLSAG [r14_378_TrMRF] | 0.326 ± 0.096 | 1.06 ± 0.2 | 0.818 ± 0.1 |
| SAMMYLIRVTITVKNKETGEEKEIEVEILIEKEEGELTEEEIEELARKLAEELGLEVEEIKIEIEPLPESAG [r14_278_TrROS_Hall] | 4.34 ± 0.2 | 5.28 ± 0.16 | 5.3 ± 0.24 |
| SAMNLRFPLSTEALAKLLENLTPDQTLELRVRIGDRWVRVRLEIHRIERKEDELRVEVTLEVEPLRPEDSAG [r14_335_TrMRF] | 3.33 ± 0.095 | 3.34 ± 0.06 | 3.35 ± 0.19 |
| SAMPKPALTIEIPLPNGQTVRIDVYYDPETGTYTVNVTRTLPNGEPFTRTYTVESPEEAIKNIEVTDFGSAG [r14_749_TrMRF] | 3.29 ± 0.13 | 3.18 ± 0.078 | 3.24 ± 0.12 |
| SAMPLDDLPAEQIRELVRSIMRKHGMPPDNVEVDVEVQRPPDGYYYITVDVEMRMNGKERKYKFTIWIPSAG [r14_703_TrROS] | 2.99 ± 0.072 | 4.17 ± 0.05 | 3.75 ± 0.1 |
| SAMPVFTFPVEIPGPEYTPEEIVAILKEAAAKLNLPVDEEVIRELAEKALAEGTTVADIIEEILKRGLGSAG [r14_364_JUSTAS] | 3.07 ± 0.094 | 1.88 ± 0.045 | 2.52 ± 0.077 |
| SAMPVVTLKAKVTIHSDPNGIEEKEIEITVTFPDPNVGLEEAKKKAEEAIKEYAEKNGLKIELEEITIESAG [r14_190_JUSTAS] | 1.19 ± 0.08 | 2.06 ± 0.047 | 1.88 ± 0.09 |
| SAMRAAVLAAAEEITAHPEFEAVGISPDGTFLFRNPATGKVYRIRLEAEDDGEGVIVRVPSIEPLDAPDSAG [r14_20_TrMRF] | 1.43 ± 0.028 | 1.92 ± 0.051 | 1.75 ± 0.087 |

| Sequence | folding stability dG unfold [1] [kcal/mol] | folding stability dG unfold [2] [kcal/mol] | folding stability dG unfold [3] [kcal/mol] |
| --- | --- | --- | --- |
| SAMRILIEFDSPEEAEEALRKLVEEAGLVLEEIKVEIAPAKVTTTTPDGKKVTKTKYFALAEIKLSKKESAG [r14_773_TrMRF] | 1.47 ± 0.067 | 2.19 ± 0.086 | 2.12 ± 0.19 |
| SAMRPGDPWKPVEERKIPIRNPNNGKEIEIEVYRFKDDGMYMVSIHFPDGKSIQFMVPPGDVEEIIEQISAG [r14_240_TrROS] | 1.29 ± 0.037 | 3.171 ± 0.016 | 2.8 ± 0.058 |
| SAMSLTIETDGSLEDVIAALKAFLEANPNVPFIISPPNGEVKVIDLGLADKILVIPDPDGKVRITVINPSAG [r14_807_TrMRF] | 1.76 ± 0.023 | 1.7 ± 0.024 | 1.75 ± 0.036 |
| SAMSVTISFDPKGPGGTLTITADPNSPQIEKFINELKKKLNLDIKSYTKTILPNGTVKVTLTYSKINLPSAG [r14_655_JUSTAS] | 4.05 ± 0.11 | 4.657 ± 0.028 | 4.51 ± 0.083 |
| SAMTEEEKKKKKEEEEKKKRELKIIVVAKTKDGKWKKIAEFTVKNKDMSIEELVKKLKDLGVEEVKIFPSAG [r14_318_TrROS_Hall] | 1.8 ± 0.082 | 3.09 ± 0.093 | 2.67 ± 0.26 |
| SAMTIEEAIEKGKIGAIVKVEVELPNGGKIEIEIFIESESLEEALEKIKAFFEALNLKVKIIEVKVFPVSAG [r14_854_TrMRF] | 3.4 ± 0.19 | 2.87 ± 0.1 | 3.09 ± 0.36 |
| SAMTITVPPDVSLEQIAKLLGYPNLKSFTKRKVTPNLTPATLTVPEDPNKVIKVLYRPADNYTEVIVLQSAG [r14_713_JUSTAS] | 1.02 ± 0.1 | 0.822 ± 0.3 | 0.921 ± 0.16 |
| SAMTPEEIKERLAAELPPSAEVMTTETFKEGDVEYVKITLRTPDSLSEATYNLETGEIERTPIGLDVPQSAG [r14_737_JUSTAS] | 0.423 ± 0.13 | 0.923 ± 0.13 | 0.792 ± 0.15 |
| SAMTTTETFEEGDYVYTVITTKIPSSLPPDSVVTIPVTTPLGAESEVVSEPGGTITVKVRLKKEDPELLSAG [r14_754_JUSTAS] | -1.57 ± 0.3 | 0.14 ± 0.088 | -0.176 ± 0.13 |
| SAMTVELTLPSEELVEKIKELLPSYVKIEKVEVDEETKTVTVTVSFDPNLSPEEQQAVVEKIKKLIEEKSAG [r14_306_JUSTAS] | 2.7 ± 0.2 | 3.56 ± 0.26 | 3.4 ± 0.28 |
| SAMVEVSTLPDGTTRVTITGKDPAAFEKELAELIEKIKKEGINATITKTREEPIPEEPELYRAELEIIVSAG [r14_119_JUSTAS] | 1.54 ± 0.062 | 1.48 ± 0.055 | 1.54 ± 0.25 |
| SAMVIIRVENKDGKTIEIAIPVRNEDGKLTKEELEELAKRLAEELAEELGLEDVKVEVEVRPLSEEELKSAG [r14_378_TrROS_Hall] | 1.64 ± 0.091 | 2.68 ± 0.081 | 2.35 ± 0.17 |
| SAMVITIHPDIPLEELAELLGFPEIEDATVEPLNEGIVPATFHIPEDPDKVILIDFNPEPDFALVLVLSSAG [r14_713_TrMRF] | 1.59 ± 0.067 | 2.25 ± 0.038 | 1.98 ± 0.17 |
| SAMVLVKIELYDPENEEPLATAEFVVPEEDLEAFVEEAKKIFGVAEDAFIKVEAAPLEPLTDESGEEVLSAG [r14_297_TrMRF] | 2.08 ± 0.12 | 1.786 ± 0.014 | 1.94 ± 0.062 |
| SAMVRIERLPDGSLLVVVESEGKEEGLEFIERFIEEIKSLGIDAEIELLSIEEIPEDPKRYRATFLIKASAG [r14_119_TrMRF] | 4.83 ± 0.22 | 6.12 ± 0.27 | > 6 |
| SAMVSPEEAAKLIAEKIREEHPDPNIVVPVKVEYDPETNTTTITVTVKYPDDPSTETFTYTLAPDDVLKSAG [r14_849_JUSTAS] | 1.53 ± 0.044 | 2.19 ± 0.11 | 1.9 ± 0.082 |
| SAMVTARVSDSVLRAYRLPDGYVRLVVFDPKTGEPVVEFVVPEDLITDIVEVGDKAVIHVDVKEEDLKLSAG [r14_755_TrMRF] | 1.28 ± 0.043 | 1.98 ± 0.064 | 1.69 ± 0.077 |
| SAMVVSEELSPEGTRTTTTFNPATGTSTTTTTPIPEEPPLPPVSIPTSLSPEEREALREELEAAGVPVVLGS [r1_242_JUSTAS] | 1.22 ± 0.047 | 0.0811 ± 0.093 | 0.652 ± 0.079 |
| SANEKVTVEVKIRFYFRFPKGQPFPFDITVPVTVEYDPNDPDKAKEEAKEKAIDEAIDEFRERFGYPLPSAG [r14_117_TrROS] | 1.75 ± 0.13 | 2.72 ± 0.13 | 2.37 ± 0.19 |
| SANMDMPPGFKPIARDDDITIWQNPNPVYIMIRGPDGKHKMLPFNPGDPEKIKDLIREFADDGITDIMISAG [r14_12_TrROS] | 1.43 ± 0.016 | 0.657 ± 0.12 | 1.09 ± 0.15 |
| SANTRSIPFPGSADDIVDEIKNLIDANPDVKIRIQPMDGEEYEIDIEGIEKIKVERMPDGWYMITVELPSAG [r14_807_TrROS] | 0.283 ± 0.33 | 1.63 ± 0.13 | 1.16 ± 0.21 |
